Experimental data published in patent publication US20160185857A1 (SUPPREMOL, published 2016).
Each block holds one binder with its values, some of them ahead of it.

Key:
[1] = target: T1, native FcγRIIB, membrane-bound, endogenously expressed on human cells (Raji, Daudi, PBMC) (human, UniProt P31994 43-310); experiment: cell-based or functional assay
T1 sequence (looked up): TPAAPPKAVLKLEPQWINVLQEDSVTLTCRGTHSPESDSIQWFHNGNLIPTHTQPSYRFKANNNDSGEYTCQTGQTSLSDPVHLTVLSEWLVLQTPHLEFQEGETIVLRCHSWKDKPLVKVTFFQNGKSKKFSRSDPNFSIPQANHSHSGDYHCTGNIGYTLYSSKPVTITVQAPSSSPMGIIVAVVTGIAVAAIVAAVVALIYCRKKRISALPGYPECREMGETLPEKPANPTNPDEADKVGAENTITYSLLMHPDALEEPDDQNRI

[2] = target: T2, native FcγRIIA expressed on K562 cells (human, UniProt P12318 34-317); experiment: flow cytometry on K562 cells
T2 construct: whole, on cells
T2 sequence (looked up): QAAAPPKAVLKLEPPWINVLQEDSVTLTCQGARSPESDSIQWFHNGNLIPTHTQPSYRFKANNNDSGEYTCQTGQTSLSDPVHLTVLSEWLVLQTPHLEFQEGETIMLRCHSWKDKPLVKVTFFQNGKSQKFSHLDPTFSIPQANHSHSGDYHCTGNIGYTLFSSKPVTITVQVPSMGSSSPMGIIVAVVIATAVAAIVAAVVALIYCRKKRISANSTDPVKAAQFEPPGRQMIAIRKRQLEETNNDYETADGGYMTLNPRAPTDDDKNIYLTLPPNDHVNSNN
Experimental: FIG. 5: Binding of 15 μg/ml antibody (hu8A6_VH+hu8A6_VL and ch8A6_N297A) to native FcγRIIA expressed on K562 cells.
Raji and K562 cells were incubated with increasing concentrations of humanized antibodies and the chimeric antibody as control. Raji cells were used to test binding on FcγRIIB (FIG. 4), K562 cells to analyze unspecific binding to FcγRIIA (FIG. 5). Cell bound antibodies were detected with PE-conjugated secondary antibody.

[3] = target: T3, recombinant soluble human FcγRIIB (human, UniProt P31994 43-217); experiment: ELISA, sFcγRIIB coated on plates, hybridoma supernatant
T3 construct: also called sFcγRIIB
T3 sequence: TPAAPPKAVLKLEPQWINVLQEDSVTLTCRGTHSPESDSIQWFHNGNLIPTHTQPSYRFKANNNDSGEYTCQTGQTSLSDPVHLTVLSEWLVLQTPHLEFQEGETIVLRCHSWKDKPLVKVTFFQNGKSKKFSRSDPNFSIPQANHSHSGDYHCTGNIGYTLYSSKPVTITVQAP

maximum fold phospho-signal of the FcγRIIB ITIM against untreated cells, densitometry of Western blot, Daudi cells [1]: 2.8 fold
B1: chGB3_N297A (chimeric GB3, prior art antibody of WO 2005/051999, N297A format) (antibody, V domains shown)
VH: VQLQQSGPELVKPGASVKISCKASGYTFTDYYIYWVKQWPGQGLEWIGWIFPGTGNTYYNENFKDKATLTIDRSSSTAYMLLGSLTSEDSAVYFCYGPFAYWGQ
VL: RIQLTQSPSSLSASLGERVSLTCRASQEISGYLSWLQQKPDGTIKRLIYATSALDSGVPKRFSGSGSGSNYSLTISSLESEDFADYYCLQYANYPYTFGGGTKL

binding result [2]: no binding (tested: 15 µg/ml)
B2: ch8A6_N297A (chimeric 8A6, rat variable regions, human IgG1 N297A constant region, human kappa) (antibody)
heavy: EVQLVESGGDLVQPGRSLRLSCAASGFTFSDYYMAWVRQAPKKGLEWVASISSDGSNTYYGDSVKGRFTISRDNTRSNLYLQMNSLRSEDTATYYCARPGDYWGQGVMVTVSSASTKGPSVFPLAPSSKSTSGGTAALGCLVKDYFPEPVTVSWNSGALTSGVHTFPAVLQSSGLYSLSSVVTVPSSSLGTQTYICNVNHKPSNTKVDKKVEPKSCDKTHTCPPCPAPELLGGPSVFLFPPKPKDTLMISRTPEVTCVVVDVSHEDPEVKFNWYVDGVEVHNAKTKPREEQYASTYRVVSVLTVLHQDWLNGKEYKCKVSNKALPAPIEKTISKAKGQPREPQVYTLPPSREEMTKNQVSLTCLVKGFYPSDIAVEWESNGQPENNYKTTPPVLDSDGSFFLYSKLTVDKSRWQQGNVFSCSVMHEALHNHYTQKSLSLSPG
light: NIVMTQSPTSMFISVGDRVTMNCKASQNVGTYVDWFQQKTGQSPTLLIFGASNRYTGVPDRFTGSGSGTDFTLSISNMQAEDLAVYYCLQYNYHPYTFGPGTTLELKRTVAAPSVFIFPPSDEQLKSGTASVVCLLNNFYPREAKVQWKVDNALQSGNSQESVTEQDSKDSTYSLSSTLTLSKADYEKHKVYACEVTHQGLSSPVTKSFNRGEC
notes: also called chimeric 8A6_N297A

binding result [3]: binds
B3: monoclonal antibody 8A6 (rat IgG2a) (antibody, V domains shown)
VH: EVQLVESGGDLVQPGRSLRLSCAASGFTFSDYYMAWVRQAPKKGLEWVASISSDGSNTYYGDSVKGRFTISRDNTRSNLYLQMNSLRSEDTATYYCARPGDYWGQGVMVTVSS
VL: NIVMTQSPTSMFISVGDRVTMNCKASQNVGTYVDWFQQKTGQSPTLLIFGASNRYTGVPDRFTGSGSGTDFTLSISNMQAEDLAVYYCLQYNYHPYTFGPGTTLELKR
notes: Rat IgG2a from hybridoma supernatant; also called mAb 8A6; rat antibody 8A6
